# Assay results as given in patent publication US20160264960A1 (Chugai, published 2016).
# Residue numbers refer to the chain shown, from its start.
# T1: soluble human IL-6R (human, UniProt P08887 20-357)
# T1 construct: Analyte in the Octet experiments; also called hIL-6R; soluble hIL-6R
# T1 sequence: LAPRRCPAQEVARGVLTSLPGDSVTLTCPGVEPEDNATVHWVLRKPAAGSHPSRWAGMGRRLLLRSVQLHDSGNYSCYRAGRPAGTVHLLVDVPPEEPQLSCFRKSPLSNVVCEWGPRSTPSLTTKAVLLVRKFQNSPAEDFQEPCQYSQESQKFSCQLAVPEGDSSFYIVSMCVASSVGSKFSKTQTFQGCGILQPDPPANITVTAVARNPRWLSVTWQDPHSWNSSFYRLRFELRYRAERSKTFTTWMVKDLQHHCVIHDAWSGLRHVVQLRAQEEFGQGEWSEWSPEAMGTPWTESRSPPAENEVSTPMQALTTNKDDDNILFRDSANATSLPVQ
# T2: human plexin A1 protein sema domain (from glutamic acid at position 28 to serine at position 514) tagged at … (human, UniProt Q9UIW2 28-514)
# T2 construct: also called human plexin A1 sema domain
# T2 sequence: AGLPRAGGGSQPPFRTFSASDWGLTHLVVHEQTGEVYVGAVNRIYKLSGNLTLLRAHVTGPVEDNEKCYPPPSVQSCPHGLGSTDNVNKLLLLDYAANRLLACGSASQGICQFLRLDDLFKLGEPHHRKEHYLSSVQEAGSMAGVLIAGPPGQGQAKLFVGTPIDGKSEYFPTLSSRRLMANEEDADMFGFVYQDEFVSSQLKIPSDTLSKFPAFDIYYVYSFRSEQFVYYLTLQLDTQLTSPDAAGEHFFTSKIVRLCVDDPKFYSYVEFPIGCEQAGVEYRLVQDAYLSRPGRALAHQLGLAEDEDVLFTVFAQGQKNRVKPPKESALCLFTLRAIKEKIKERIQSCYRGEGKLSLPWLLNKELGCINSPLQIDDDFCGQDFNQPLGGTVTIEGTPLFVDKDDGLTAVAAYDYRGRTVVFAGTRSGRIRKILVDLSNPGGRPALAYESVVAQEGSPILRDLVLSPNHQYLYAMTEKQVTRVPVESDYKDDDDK
# T3: biotinylated human IL-6R (shIL6R-Avitag) (human, UniProt P08887 20-357, biotinylated at the C-terminal AviTag sequence by biotin ligase (BirA))
# T3 construct: It was captured on a StreptaWell plate in the phage ELISA; its preparation is described in (3-3); also called biotinylated hIL-6R
# T3 sequence: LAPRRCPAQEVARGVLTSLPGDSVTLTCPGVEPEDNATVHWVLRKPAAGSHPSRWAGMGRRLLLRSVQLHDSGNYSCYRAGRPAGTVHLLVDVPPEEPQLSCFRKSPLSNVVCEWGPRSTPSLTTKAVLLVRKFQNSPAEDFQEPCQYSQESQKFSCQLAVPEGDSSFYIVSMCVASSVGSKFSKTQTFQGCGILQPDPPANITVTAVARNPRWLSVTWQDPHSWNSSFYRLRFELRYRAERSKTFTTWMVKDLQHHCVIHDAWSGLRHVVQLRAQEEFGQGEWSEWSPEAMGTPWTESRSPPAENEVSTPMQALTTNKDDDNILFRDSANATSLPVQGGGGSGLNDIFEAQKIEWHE
# B1: 6RNH-2_02 (antibody, human IgG1, kappa, V domains shown)
# VH: QVQLVETGGGMVQPGGSLRLSCAASGFMFSTYAMSWVRQASGKGLEWVSLISGTGSVTKYADSVKGRFTISRDNSKNMVYLQMNNLGADDTAVYYCANSDYGDYARFDHWGQGTLVTVSS
# VL: DIQMTQSPSSLSASVGDSVTITCQASQDISSYLNWYQQKPGKAPELLIYYGSELHSGVPSRFSGSGSGTDFTFTISSLEAEDAATYYCGQGNRLPYTFGQGTKVEIER
# notes: IgG with the PF1 L chain, purified on Protein A
# B2: PLR3H264#022 (antibody, human IgG1, lambda, V domains shown)
# VH: QVQLQQSGPGLVKPSQTLSLTCAISGDSVSSNSAAWNWIRQSPSRGLEWLGRTYYRSKWYNDYAVSVKSRITINPDTSKNQFSLQLNSVTPEDTAVYYCARDRGYSYGFDYWGQGTLVTVSS
# VL: SYVLTQPRSVSVSPGQTTRITCSGQNLGEKYISWYRQKPGQSPEVLIYEDKRRPSGIPERISGANSGGTATLTISGTQAMDEADYFCQAWVSSTEGVFGGGTRLTVLR
# notes: IgG from the 264H-NL library
# B3: PLR4H264#061 (antibody, human IgG1, lambda, V domains shown)
# VH: B2 VH
# VL: SYELTQPPSVAVSPGQTASITCSGHKLGEKYASWYQQKPGQSPVLVIYQDTKRPSGIPERFSGSNSGNTATLTISGTQAMDEADYYCQAWDSSSVCVFGTGTKVTVLG
# notes: IgG from the 264H-NL library
# B4: PLR2H264#002 (antibody, human IgG1, lambda, V domains shown)
# VH: B2 VH
# VL: SYELTQPPSVSVSPGQTASITCSGDKLGNKYVSWYQRRPGQSPVLVIYQDSKRPSGIPERFSGSNSGNTATLTISGTQSMDEADYYCQAWYSSSVGVFGGGTRLTVLG
# notes: IgG from the 264H-NL library
# B5: hPANLB2-3_342 (antibody, human IgG1, lambda, V domains shown)
# VH: EVQLVQSGAEVKKPGASVKVSCKASGYTFTSYGISWVRQAPGQGLEWMGWISAYNGNTNYAQKLQGRVTMTTDTSTSTAYMELRSLRSDDTAVYYCARHAGYYYGMDVWGKGTMVTVSS
# VL: B3 VL with A11S, H25D, T51S, T69M, M80V, A89T, S93N, S94T, V95A, C96F
# notes: Parent anti-plexin A1 antibody, IgG
# B6: hPANLB2-3_359 (antibody, human IgG1, lambda, V domains shown)
# VH: QVQLVQSGAEVKKPGASVKVSCKASGYTFTSYYMHWVRQAPGQGLEWMGIINPSGGSTSYAQKFQGRVTMTRDTSTSTVYMELSSLRSEDTAVYYCARAPGHYYYGMDVWGQGTTVTVSS
# VL: SYELTQPPSVSVSPGQTASITCSGDKVGEKYASWYQQRPGQSPVLVIYQDTKRPSGIPERFSGSNSGNTATLTISGTQAIDDADYYCQAWDNSAYVIFGGGTKLTVLG
# notes: as for B5
# B7: hPANLB2-3_264 (antibody, human IgG1, lambda, V domains shown)
# VH: B2 VH
# VL: B4 VL with E3L, N29Q, Y31F, R37Q, S51T, S79A, Y91D, S94T, V95A, R103N
# notes: as for B5
# B8: phage produced by the H chain (PF1H)-expressing phagemid vector and the negative control helper phage M13KO7TC (other)
# heavy: QVQLQESGPGLVKPSETLSLTCAVSGYSISDDHAWSWVRQPPGEGLEWIGYISYSGITNYNPSLKGRVTISRDTSKNQFSLKLSSVTAADTAAYYCARVLARITAMDYWGEGTLVTVSSASTKGPSVFPLAPSSKSTSGGTAALGCLVKDYFPEPVTVSWNSGALTSGVHTFPAVLQSSGLYSLSSVVTVPSSSLGTQTYICNVNHKPSNTKVDKK
# notes: Control phage without an L chain; not shown: linker peptide and gene 3 protein (g3p)
# B9: PF1 Fab displayed on phage (PF1 H chain Fd-g3p fusion with PF1 L chain) (Fab, V domains shown)
# VH: QVQLQESGPGLVKPSETLSLTCAVSGYSISDDHAWSWVRQPPGEGLEWIGYISYSGITNYNPSLKGRVTISRDTSKNQFSLKLSSVTAADTAAYYCARVLARITAMDYWGEGTLVTVSS
# VL: B1 VL
# notes: also called Fab-displaying phage; phage produced with M13KO7TC-PF1L; not shown: linker peptide and gene 3 protein (g3p) fused to the C terminus of the Fd
# B10: PLR2H359#087 (antibody, human IgG1, lambda, V domains shown)
# VH: B6 VH
# VL: SSELTQPPSMSVSPGQTASISCSGDRLGEKYASWYQQKPGQSPVLVIYQDNKRPSGIPERFSGSNSGNTATLTISGTQAIDEADYYCQAWDSNSAYVFGTGTKVTVLG
# notes: IgG from the 359H-NL library
# B11: PLR2H359#062 (antibody, human IgG1, lambda, V domains shown)
# VH: B6 VH
# VL: SYELTQPPSLSVSPGQTASITCSGDKLGEKYACWYQQKPGQSPALVIYQDTKRPSGIPERFSGSNSGNTATLTISGTQAMDEADYSCQAWDTNTGEVVFGGGTKLTVLG
# notes: IgG from the 359H-NL library
# Molecular target: T1, soluble human IL-6R
# Assay: biolayer interferometry (Octet RED384), antibody on Protein G biosensor, soluble human IL-6R in solution, 120 s association and 120 s dissociation [a]
# Description: Each antibody (6RNH-2_02, 6RNH-2_37, 6RNH-3(2)_32, and 6RNH-2_42) obtained in the paragraph (4-1) was evaluated for its binding activity against soluble human IL-6R using Octet RED384 (forteBIO). The binding evaluation was conducted using HBS-EP+ Buffer (GE Healthcare Japan Corp.) as a buffer.
# After binding of the antibody to Protein G Biosensors (forteBIO), soluble human IL-6R was allowed to interact with the antibody on the biosensor through contact therebetween for 120 seconds, and subsequently contacted with the buffer for 120 seconds to measure the antibody-antigen interaction. Then, the biosensor was regenerated through contact with 10 mmol/L glycine-HCl (pH 1.5). The measurement was conducted at 30° C.
row,Binder,binding result
1,B1,binds

# Molecular target: T2, human plexin A1 protein sema domain …
# Assay: SPR, Biacore T200; KD against parent antibody hPANLB2-3_264
# Description: (§1) Each antibody obtained in the paragraph (10-1) was evaluated for its binding activity against the antigen by surface plasmon resonance (SPR) analysis.
# (§2) In the SPR analysis, the antibody was analyzed using Biacore T200 (GE Healthcare Japan Corp.). The anti-human plexin A1 antibody was immobilized onto the surface of Sensor Chip CM4 using Recombinant Protein A/G (Thermo Fisher Scientific Inc.) and Amine Coupling Kit (GE Healthcare Japan Corp.). The antigen used was a human plexin A1 protein sema domain (from glutamic acid at position 28 to serine at position 514) tagged at the C terminus of the protein with FLAG tag. The antigen was prepared as follows: an expression vector carrying a cDNA corresponding to the human plexin A1 sema domain was transferred to FreeStyle 293 cells. After culture, the obtained culture solution was passed through an anti-FLAG-M2 antibody-immobilized affinity column. A fraction eluted with the FALG peptide was purified by gel filtration. The obtained antigen was serially diluted with 20 mM ACES, 150 mM NaCl, 0.05% polysorbate 20, and 1.2 mM CaCl₂ (pH 7.4) and added to the sensor chip at a flow rate of 30 μL/min. In this assay system, the dissociation constant (KD) between the human plexin A1 protein and the anti-human plexin A1 antibody was calculated using data analysis software (BIA T200 Evaluation software ver. 2).
row,Binder,Relative KD improvement
1,B2,3 fold
2,B3,4.2 fold
3,B4,1.3 fold

# Molecular target: T2, human plexin A1 protein sema domain …
# Assay: SPR, Biacore T200; the parent antibody itself (control)
# Description: as §1, §2
row,Binder,Relative KD improvement
1,B5,1 fold
2,B6,1 fold
3,B7,1 fold

# Molecular target: T3, biotinylated human IL-6R (shIL6R-Avitag)
# Assay: phage ELISA, plate coated with biotinylated human IL-6R, detection with HRP anti-M13 antibody, absorbance at 450 nm
# Description: The phage ELISA method was carried out to confirm Fab display on the produced phage and to confirm the ability to bind to the antigen. StreptaWell 96-well microtiter plate (F. Hoffmann-La Roche, Ltd.) was coated by the addition of 100 μL of PBS containing Goat anti-Human Kappa Biotin antibody (EY Laboratories, Inc.) or biotinylated human IL-6R. Each well of the plate was washed with 0.1×TBST (0.1×TBS containing 0.1% Tween 20) to remove the antigen. Then, the plate was blocked for 1 hour or longer by the addition of 250 μL of 0.02% skim milk-0.1×TBS (0.1×TBS containing 0.02% skim milk) to the well. […] After washing with 0.1×TBST, an HRP-conjugated anti-M13 antibody (Amersham Pharmacia Biotech) diluted with 0.1×TBST was added to each well, and the plate was incubated for 1 hour. After washing with 0.1×TBST, TMB single solution (Zymed Laboratories Inc.) was added to each well. The color reaction of the solution was further terminated by the addition of sulfuric acid. Then, the absorbance was measured at 450 nm.
row,Binder,binding result
1,B8,no binding
2,B9,binds

# Molecular target: T2, human plexin A1 protein sema domain …
# Assay: SPR, Biacore T200; KD against parent antibody hPANLB2-3_359
# Description: as §1, §2
row,Binder,Relative KD improvement
1,B10,2.9 fold
2,B11,3.4 fold

# Molecular target: T2, human plexin A1 protein sema domain …
# Assay: SPR, Biacore T200; antibody held by Protein A/G on CM4 chip, sema domain as analyte
# Description: as §1, §2
row,Binder,Kd
1,B5,34.5 nM
2,B10,4.62 nM
3,B6,13.5 nM
4,B11,3.93 nM
5,B7,173 nM
6,B2,56.9 nM
7,B3,41 nM
8,B4,138 nM
